The experiment addresses monobody L3 E29Q labeled with EDANS at A12C. The experiment in a line: fluorescence polarisation.

B1: Fluc homologue from Bordetella pertussis, Bpe (natural protein)
chain: MLTYAPLNFIAIGIGATLGAWLRWVLGLRLNGAGWPWGTLTANLVGGYLIGVMVALIASHPEWPAWIRLAAVTGFLGGLTTFSTFSAETVDMLERGVYATAAAYAGASLAGSLAMTGLGLATVRLLLR
Molecule B1 registered a Kd of 150 nM.

For the origin of these results see publication PMC5379923.
